Biological target: Soluble CD28-Ig (extracellular domain of human CD28 fused to the Fc portion of human IgG1) (human), P10747
Assay: competitive FACS on transfected cells, biotin-sCD28-Ig with FITC-sCTLA-4-Ig; grade 0-2 of CD28/CTLA-4 ratio vs WT hB7-1

Row | Binding Score | Binder
1 | 1 | Round 2 CD28A4-9 (ligand, not fully specified; X: residue not identified in the source; ends and bridges not checked) ITPKSVTKRVKETVMLSCDYNTSTEKLTSLRIYWQKDSKMVLAILPGKVQVWPEYKNRTITDMNDNPRIVILALRLSDSGTYTCVIQKPVLKGAYKLEHLTSVRLMIRADFPVPTINDLGNPSPNIRRLICSTSGGFPRPHLYWLENGEELNATNTTVSQDPETKLYMISSELDFNVTNNHSIVCLIKYGELSVSQIFPWSKPKQEPPIDQLPFWVIIPVSGALVLTAVVLYCPACRHVARWKRTRRNEETVGTERLSPIYLGSAQSRAEVPSLSX
2 | 1 | Round 2 CD28A12-5 (ligand, not fully specified; X: residue not identified in the source; ends and bridges not checked; also: glycosylated membrane protein, sites not given here) ITPKSVTKRVKETVMLSCDYNTSTEELTSLRIYWRKDSKMXLAILPGKVQVWPEYKNRTITDMNDNLRIVILALRLSDSGTYTCVIQKPDLKGAYKLEHLTSVRLMIRADFPVPTINDLGNPSPNIRRLICSTSGGFPRPHLYWLENGEELNATNTTVSQDPGTELYMISSELDFNVTNNHSIVCLIKYGELLVSQIFPWSKPKQEPPIDQLPFWVIIPVSGALVLTAVVLYCLACRHVARWKRTRRNEETVGTERLSPIYLGSAQSSG

Reference: patent US20100261660A1
